Results as given in publication PMC8026774 (Cellular and molecular neurobiology, 2020).
Where no end group is shown, it is not given here.

Key:
MOR-1-PK [1] = target: T1, MOR-1-PK (mouse, UniProt P42866 1-398); assay: cell-based or functional assay
MOR-1A-PK = MOR-1A-PK (mouse); assay: cell-based or functional assay
MOR-1E-PK = MOR-1E-PK (mouse); assay: cell-based or functional assay
MOR-1B1-PK = MOR-1B1-PK (mouse); assay: cell-based or functional assay
MOR-TR-PK = MOR-TR-PK (mouse); assay: cell-based or functional assay
MOR-1-PK [2] = target: T1, MOR-1-PK; assay: radioligand binding
MOR-1 (untagged) = MOR-1 (untagged) (mouse, UniProt P42866 1-398); assay: radioligand binding
MOR-1 (untagged), sequence (P42866 whole entry): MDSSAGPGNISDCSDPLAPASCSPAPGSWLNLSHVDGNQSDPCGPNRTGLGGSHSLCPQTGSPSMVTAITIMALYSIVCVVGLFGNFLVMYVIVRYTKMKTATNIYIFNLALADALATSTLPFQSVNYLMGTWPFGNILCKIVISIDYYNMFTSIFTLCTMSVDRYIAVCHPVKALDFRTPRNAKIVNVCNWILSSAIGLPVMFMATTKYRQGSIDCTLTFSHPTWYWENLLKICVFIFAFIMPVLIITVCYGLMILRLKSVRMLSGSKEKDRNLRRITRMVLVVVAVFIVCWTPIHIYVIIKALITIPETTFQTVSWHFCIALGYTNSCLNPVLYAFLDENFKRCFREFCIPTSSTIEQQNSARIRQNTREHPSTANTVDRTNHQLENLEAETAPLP

T1 sequence (P42866 whole entry): as above
MOR-TR-PK (mouse), sequence (P42866 whole entry): as above
MOR-1B1-PK (mouse), sequence (P42866 whole entry): as above
MOR-1A-PK (mouse), sequence (P42866 whole entry): as above
MOR-1E-PK (mouse), sequence (P42866 whole entry): as above

Binder: YGGFMTSEKSQTPLVTLFKNAIIKNAYKKGE (not fully specified) [β-endorphin]
- [35S]GTPγS binding (G-protein activation), EC50 (MOR-1-PK [1]): 118 nM
- [35S]GTPγS binding (G-protein activation), EC50 (MOR-1A-PK): 112 nM
- [35S]GTPγS binding (G-protein activation), EC50 (MOR-1E-PK): 23 nM
- [35S]GTPγS binding (G-protein activation), EC50 (MOR-1B1-PK): 141 nM
- [35S]GTPγS binding (G-protein activation), EC50 (MOR-TR-PK): 691 nM
- Ki (MOR-1-PK [2]): 10.4 nM
- Ki (MOR-1 (untagged)): 6.22 nM
